{"source": "IntAct's records for PubMed 30323948", "parents": {"B1": {"name": "Subversion of eukaryotic traffic protein A (Legionella pneumophila subsp. pneumophila), Q5ZU30 (parent)", "chain": "MYKIYSYLGWRIDMKTENLPQAGQEAQIDKKIHFIWVGHIMPQKNIQVVSEWAEKNPGYETIIWVDKKIAPAKELDLFILDMKSKGITVKDINEEGVCRDSIRHELDQESPNYGMVSDMLRLNILAAEGGIYLDSDILCSAPFPDEIYAPFGFLLSPWSQGANNTLCNDIILCSKGNQIIQQLADAIEQSYIARDSFEFTHEYASMKETKGERIAKTLGVTGPGFLFHQLKKMGILNDKSEMEAIHWELQDQRYLIDGSVKEPDYFYVPQNNTNDASWVPSIKRPGIENMSFQERLENAVQLIAFDIQKTGLFNLDHYANELKVKQNSWCIAAETSPELKPDSYLLIRPRDKTGEWTLYYVDEDKKLNPVTLPVIKGAIKLSEVSDPLRKFHTLLSQVSDPVNPTAHELKQIGRALIELKPRQDEWHCKNKWSGAEEIAQELWQRITSNETLRAQIKQCFTQFESLKPRVAELGLTRASGAGTEVEAHESTVKEQEIISQNTVGEEGTKEKNSVQLASENSSDEKIKTAHDLIDEIIQDVIQLDGKLGLLGGNTRQLEDGRVINIPNGAAMIFDDYKKYKQGELTAESALESMIKIAKLSNQLNRHTFFNQRQPETGQFYKKVAAIDLQTTIAAEYDNNHGLRI"}}}
{"variants_of": "B1", "conditions": "with rab1a_human RAB1A"}
{"variant": "D134A;D136A", "effect of a mutation on the interaction": "disrupting interaction"}
{"variants_of": "B1", "conditions": "with rab7a_human RAB7A"}
{"variant": "D134A;D136A", "effect of a mutation on the interaction": "disrupting interaction"}
